Experimental data reported in article PMC10279719.
Non-standard residues stand in square brackets, D forms with d. pT = C[C@@H](OP(=O)(O)O)[C@H](N)C(=O)O

T1: PEAK3^FL from E. coli, phosphorylated by Src (human), Q6ZS72
T1 chain: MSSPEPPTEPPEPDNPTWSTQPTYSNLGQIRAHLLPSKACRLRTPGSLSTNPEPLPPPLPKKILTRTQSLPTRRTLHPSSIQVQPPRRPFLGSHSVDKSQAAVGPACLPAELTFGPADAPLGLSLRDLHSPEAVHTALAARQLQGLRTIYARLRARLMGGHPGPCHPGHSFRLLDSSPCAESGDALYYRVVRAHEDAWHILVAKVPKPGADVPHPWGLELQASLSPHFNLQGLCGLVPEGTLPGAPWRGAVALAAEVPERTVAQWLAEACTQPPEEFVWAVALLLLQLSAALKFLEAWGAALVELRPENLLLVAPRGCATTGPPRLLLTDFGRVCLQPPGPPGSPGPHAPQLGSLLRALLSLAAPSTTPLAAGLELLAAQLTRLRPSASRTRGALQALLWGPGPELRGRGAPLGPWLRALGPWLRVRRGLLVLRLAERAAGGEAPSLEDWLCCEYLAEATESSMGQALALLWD

T2: PEAK3^FL from insect cells, phosphorylated by Src (human), Q6ZS72
T2 chain: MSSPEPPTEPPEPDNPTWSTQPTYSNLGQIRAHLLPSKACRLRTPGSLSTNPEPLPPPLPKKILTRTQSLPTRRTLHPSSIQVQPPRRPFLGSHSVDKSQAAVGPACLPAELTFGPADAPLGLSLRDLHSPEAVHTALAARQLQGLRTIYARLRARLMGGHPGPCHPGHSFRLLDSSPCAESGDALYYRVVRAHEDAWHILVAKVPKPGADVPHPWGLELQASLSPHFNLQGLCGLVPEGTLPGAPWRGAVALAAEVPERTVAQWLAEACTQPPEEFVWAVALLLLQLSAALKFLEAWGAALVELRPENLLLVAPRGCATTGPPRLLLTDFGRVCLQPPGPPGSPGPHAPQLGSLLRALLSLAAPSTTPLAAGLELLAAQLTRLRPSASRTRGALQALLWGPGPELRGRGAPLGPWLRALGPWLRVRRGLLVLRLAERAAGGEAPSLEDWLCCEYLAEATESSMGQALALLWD

T3: full length PEAK3 from insect cells (PEAK3^FL, S69 phosphorylated) (human), Q6ZS72
T3 chain: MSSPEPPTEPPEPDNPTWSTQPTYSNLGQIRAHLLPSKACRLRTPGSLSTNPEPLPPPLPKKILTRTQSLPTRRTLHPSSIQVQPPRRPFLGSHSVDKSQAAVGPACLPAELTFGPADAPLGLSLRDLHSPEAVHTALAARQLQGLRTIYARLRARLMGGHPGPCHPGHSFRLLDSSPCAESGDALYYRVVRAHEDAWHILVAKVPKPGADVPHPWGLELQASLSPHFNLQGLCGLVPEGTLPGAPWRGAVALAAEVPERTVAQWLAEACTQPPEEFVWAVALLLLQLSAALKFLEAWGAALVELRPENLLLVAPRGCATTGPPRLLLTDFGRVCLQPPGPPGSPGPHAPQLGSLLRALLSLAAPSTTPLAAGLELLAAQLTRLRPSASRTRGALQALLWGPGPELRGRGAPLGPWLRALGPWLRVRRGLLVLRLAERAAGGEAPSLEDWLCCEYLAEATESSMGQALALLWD

T4: full length PEAK3 (PEAK3^FL, residues 1-473), from E. coli (human), Q6ZS72
T4 chain: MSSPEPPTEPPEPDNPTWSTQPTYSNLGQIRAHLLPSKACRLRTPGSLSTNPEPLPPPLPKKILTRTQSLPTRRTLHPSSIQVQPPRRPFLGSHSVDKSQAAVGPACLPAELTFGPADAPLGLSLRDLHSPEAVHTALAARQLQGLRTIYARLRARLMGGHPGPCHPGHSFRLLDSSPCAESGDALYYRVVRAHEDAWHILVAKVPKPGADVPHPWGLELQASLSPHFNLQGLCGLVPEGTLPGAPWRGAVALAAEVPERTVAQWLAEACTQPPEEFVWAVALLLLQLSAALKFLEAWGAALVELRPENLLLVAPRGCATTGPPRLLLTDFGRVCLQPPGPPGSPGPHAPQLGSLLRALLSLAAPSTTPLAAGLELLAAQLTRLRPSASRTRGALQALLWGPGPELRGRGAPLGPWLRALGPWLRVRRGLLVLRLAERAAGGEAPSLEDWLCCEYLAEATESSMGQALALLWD

T5: full length PEAK3 (PEAK3^FL, residues 1-473), from E. coli, phosphorylated by Src (human), Q6ZS72
T5 chain: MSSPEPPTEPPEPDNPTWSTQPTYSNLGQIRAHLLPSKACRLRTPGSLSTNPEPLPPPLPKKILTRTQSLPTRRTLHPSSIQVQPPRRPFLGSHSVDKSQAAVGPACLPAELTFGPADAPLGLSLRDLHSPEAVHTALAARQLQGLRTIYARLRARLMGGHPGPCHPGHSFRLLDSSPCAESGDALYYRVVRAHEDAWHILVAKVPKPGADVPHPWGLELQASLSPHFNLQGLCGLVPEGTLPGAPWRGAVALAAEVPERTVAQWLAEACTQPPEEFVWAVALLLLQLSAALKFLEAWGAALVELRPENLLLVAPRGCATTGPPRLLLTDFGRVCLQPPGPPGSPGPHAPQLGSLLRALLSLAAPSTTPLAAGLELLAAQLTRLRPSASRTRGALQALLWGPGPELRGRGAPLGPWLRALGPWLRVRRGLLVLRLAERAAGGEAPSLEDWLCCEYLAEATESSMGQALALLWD

T6: full length PEAK3 (PEAK3^FL, residues 1-473), from insect cells, phosphorylated by Src (human), Q6ZS72
T6 chain: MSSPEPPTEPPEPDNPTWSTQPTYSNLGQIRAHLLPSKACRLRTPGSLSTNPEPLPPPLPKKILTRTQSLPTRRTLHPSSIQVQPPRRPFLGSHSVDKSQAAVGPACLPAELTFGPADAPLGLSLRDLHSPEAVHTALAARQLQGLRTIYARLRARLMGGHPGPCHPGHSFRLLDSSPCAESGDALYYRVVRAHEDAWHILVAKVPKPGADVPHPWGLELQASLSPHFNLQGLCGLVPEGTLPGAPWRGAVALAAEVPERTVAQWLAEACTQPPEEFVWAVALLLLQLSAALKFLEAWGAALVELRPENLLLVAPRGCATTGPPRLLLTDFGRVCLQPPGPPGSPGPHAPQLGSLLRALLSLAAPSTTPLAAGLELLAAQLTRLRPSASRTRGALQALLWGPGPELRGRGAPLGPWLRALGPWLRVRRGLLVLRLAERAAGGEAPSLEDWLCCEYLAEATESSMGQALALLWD


Legend:
[1] = molecular target: T1, PEAK3^FL from E. coli, phosphorylated …; test: SPR; conditions: natural protein, biotin (EZ-Link NHS-PEG4-Biotin) where immobilised for SPR, phosphotyrosine at 24 (by Src in vitro; the MS/MS was told for PEAK3^FL in general), remark: other sources report otherwise
[2] = molecular target: T2, PEAK3^FL from insect cells, …; test: SPR; conditions: natural protein, biotin (EZ-Link NHS-PEG4-Biotin) where immobilised for SPR, phosphotyrosine at 24 (by Src in vitro, MS/MS), phosphoserine at 69, remark: other sources report otherwise
[3] = molecular target: T3, full length PEAK3 from insect cells …; test: SPR; conditions: natural protein, biotin (EZ-Link NHS-PEG4-Biotin) where immobilised for SPR, phosphoserine at 69, remark: other sources report otherwise
[4] = molecular target: T4, full length PEAK3 (PEAK3^FL, residues …); test: SPR; biotinylated PEAK proteins (with or without Src phosphorylation) captured with a biotin CAPture kit; Grb2 FL, Grb2 SH2, CrkII SH2, CrkII FL monomer or dimer as analytes; Biacore 8K+, 20 °C, HBS-TP with NaCl raised to 500 mM; 1 M NaCl regeneration; steady state; conditions: remark: other sources report otherwise
[5] = molecular target: T5, full length PEAK3 (PEAK3^FL, residues …); test: as above; conditions: remark: other sources report otherwise
[6] = molecular target: T6, full length PEAK3 (PEAK3^FL, residues …); test: as above; conditions: remark: other sources report otherwise
[7] = molecular target: full length CrkII, dimer (CrkIIFL dimer) (human), P46108; test: SEC-MALS; Superdex 200 Increase 10/300 GL, 20 mM HEPES pH 7.5, 150 mM NaCl, 1 mM TCEP, 0.5 ml/min; conditions: remark: other sources report otherwise
[8] = molecular target: 14-3-3γ (residues 1-247) (human); test: SPR; 14-3-3 isoforms amine coupled to a CM5 chip, tandem peptides as analytes (10 µM-10 nM for PEAK3 tandem-pS69, 20 µM-20 nM for all others); Biacore S200, 20 °C, HBS-TP; steady state, 1:1 model
[9] = molecular target: 14-3-3η (residues 1-246) (human); test: as above
14-3-3σ (sigma) (human) = test: as above
Chain of 14-3-3σ (sigma) (human) (A8K1N0 whole entry): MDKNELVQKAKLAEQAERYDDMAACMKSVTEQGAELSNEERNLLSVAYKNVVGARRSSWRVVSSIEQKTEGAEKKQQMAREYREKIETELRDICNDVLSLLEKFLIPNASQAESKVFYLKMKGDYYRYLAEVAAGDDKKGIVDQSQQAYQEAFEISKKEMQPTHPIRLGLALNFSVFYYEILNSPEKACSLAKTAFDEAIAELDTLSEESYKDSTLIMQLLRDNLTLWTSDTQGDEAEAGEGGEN

Binder | Kd [1] [nM] | Kd [3] [µM] | Kd [4] [µM] | Kd [6] [nM] | Kd [8] [nM] | Kd [9] [nM] | Kd (14-3-3σ (sigma) (human)) [µM] | other results
full length CrkII, dimer (CrkII^FL dimer), P46108-1 1-304 (natural protein, here or on the partner: biotin (EZ-Link NHS-PEG4-Biotin, 1:1 molar ratio) where it was immobilised (a1); phosphoserine at S69; phosphotyrosine at Y24 (by Src in vitro, shown by MS/MS); other Src sites not stated; biotin (EZ-Link NHS-PEG4-Biotin, 1:1 molar ratio)) MAGNFDSEERSSWYWGRLSRQEAVALLQGQRHGVFLVRDSSTSPGDYVLSVSENSRVSHYIINSSGPRPPVPPSPAQPPPGVSPSRLRIGDQEFDSLPALLEFYKIHYLDTTTLIEPVSRSRQGSGVILRQEEAEYVRALFDFNGNDEEDLPFKKGDILRIRDKPEEQWWNAEDSEGKRGMIPVPYVEKYRPASASVSALIGGNQEGSHPQPLGGPEPGPYAQPSVNTPLPNLQNGPIYARVIQKRVPNAYDKTALALEVGELVKVTKINVSGQWEGECNGKRGHFPFTHVRLLDQQNPDEDFS | 2100 | 2.4 | 7.6 | 2180 | – | – | – | Kd [2]: 2200 nM; Kd [5]: 2110 nM
full length CrkII, dimer (CrkIIFL dimer), P46108-1 1-304 (natural protein, here or on the partner: biotin (EZ-Link NHS-PEG4-Biotin) in the SPR experiment only; biotin (EZ-Link NHS-PEG4-Biotin) in the SPR experiment only) MAGNFDSEERSSWYWGRLSRQEAVALLQGQRHGVFLVRDSSTSPGDYVLSVSENSRVSHYIINSSGPRPPVPPSPAQPPPGVSPSRLRIGDQEFDSLPALLEFYKIHYLDTTTLIEPVSRSRQGSGVILRQEEAEYVRALFDFNGNDEEDLPFKKGDILRIRDKPEEQWWNAEDSEGKRGMIPVPYVEKYRPASASVSALIGGNQEGSHPQPLGGPEPGPYAQPSVNTPLPNLQNGPIYARVIQKRVPNAYDKTALALEVGELVKVTKINVSGQWEGECNGKRGHFPFTHVRLLDQQNPDEDFS | – | – | – | – | – | – | – | stoichiometry N [7]: 2
full length CrkII, monomer (CrkII^FL monomer), P46108-1 1-304 (natural protein, here or on the partner: biotin (EZ-Link NHS-PEG4-Biotin, 1:1 molar ratio) where it was immobilised (a1); phosphoserine at S69; phosphotyrosine at Y24 (by Src in vitro, shown by MS/MS); other Src sites not stated; biotin (EZ-Link NHS-PEG4-Biotin, 1:1 molar ratio)) MAGNFDSEERSSWYWGRLSRQEAVALLQGQRHGVFLVRDSSTSPGDYVLSVSENSRVSHYIINSSGPRPPVPPSPAQPPPGVSPSRLRIGDQEFDSLPALLEFYKIHYLDTTTLIEPVSRSRQGSGVILRQEEAEYVRALFDFNGNDEEDLPFKKGDILRIRDKPEEQWWNAEDSEGKRGMIPVPYVEKYRPASASVSALIGGNQEGSHPQPLGGPEPGPYAQPSVNTPLPNLQNGPIYARVIQKRVPNAYDKTALALEVGELVKVTKINVSGQWEGECNGKRGHFPFTHVRLLDQQNPDEDFS | 2600 | 12.8 | 14.1 | 2700 | – | – | – | –
Ac-PPPLPKKMIIRANTEPISKD-NH2 [PEAK1 tandem peptide, non-phosphorylated (residues 1152-1171)] | – | – | – | – | > 100000 | > 100000 | > 100 | –
Ac-PPPLPQKKIVSRAASSPDGF-NH2 [PEAK2 tandem peptide, non-phosphorylated (residues 812-831)] | – | – | – | – | – | – | > 100 | –
Ac-PPPLPKKMIIRAN[pT]EPISKD-NH2 [PEAK1 tandem-pT1165 peptide (residues 1152-1171)] | – | – | – | – | 1770 | 2560 | 9.7 | –
